Reference: patent US12209135B2, “Anti-CD45 antibodies and conjugates thereof” (priority 2019, dated 2025)
Residue numbers refer to the chain shown, from its start.

T1: human CD45 ectodomain (Homo sapiens, UniProt P08575)
T1 construct: purified human, rhesus or cynomolgus CD45 ectodomain
T1 sequence (P08575 26-577): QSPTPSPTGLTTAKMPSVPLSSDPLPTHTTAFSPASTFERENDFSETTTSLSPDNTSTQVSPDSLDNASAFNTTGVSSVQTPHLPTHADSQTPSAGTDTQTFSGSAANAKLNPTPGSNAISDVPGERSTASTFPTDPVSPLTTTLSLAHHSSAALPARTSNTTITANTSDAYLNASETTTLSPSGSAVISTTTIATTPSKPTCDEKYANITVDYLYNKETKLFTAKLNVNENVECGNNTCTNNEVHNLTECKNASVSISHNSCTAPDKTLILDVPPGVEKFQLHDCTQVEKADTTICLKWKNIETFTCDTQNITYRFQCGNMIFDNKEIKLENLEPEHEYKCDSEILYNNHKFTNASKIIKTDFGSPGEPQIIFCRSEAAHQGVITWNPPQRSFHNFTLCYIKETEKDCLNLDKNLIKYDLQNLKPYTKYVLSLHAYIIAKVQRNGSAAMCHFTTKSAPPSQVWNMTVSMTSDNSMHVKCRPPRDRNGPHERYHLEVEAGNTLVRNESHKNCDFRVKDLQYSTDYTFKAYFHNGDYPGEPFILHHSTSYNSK

T2: rhesus CD45 ectodomain (Macaca mulatta, UniProt A0A1D5R142)
T2 construct: purified human, rhesus or cynomolgus CD45 ectodomain
T2 sequence (A0A1D5R142 26-581): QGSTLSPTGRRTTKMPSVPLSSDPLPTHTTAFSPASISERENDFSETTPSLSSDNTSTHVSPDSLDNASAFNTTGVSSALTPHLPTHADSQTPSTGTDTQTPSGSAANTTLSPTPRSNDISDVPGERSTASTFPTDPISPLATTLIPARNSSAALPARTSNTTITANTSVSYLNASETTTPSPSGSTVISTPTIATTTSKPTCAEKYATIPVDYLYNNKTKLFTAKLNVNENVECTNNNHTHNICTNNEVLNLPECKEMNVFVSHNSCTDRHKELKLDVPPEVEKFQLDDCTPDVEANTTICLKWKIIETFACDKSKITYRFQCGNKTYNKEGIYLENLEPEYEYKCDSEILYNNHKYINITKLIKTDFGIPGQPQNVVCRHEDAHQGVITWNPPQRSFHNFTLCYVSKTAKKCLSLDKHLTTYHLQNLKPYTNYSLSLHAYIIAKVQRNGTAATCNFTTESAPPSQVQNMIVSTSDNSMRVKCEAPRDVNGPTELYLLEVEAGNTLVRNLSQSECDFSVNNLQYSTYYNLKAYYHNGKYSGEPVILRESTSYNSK

B1: Ab3: affinity matured human anti-CD45 IgG derived from Ab1; VH SEQ ID NO:21, VL SEQ ID NO:25 (antibody, V domains shown)
VH: QVQLVESGGGLVKPGGSLRLSCAASGFTFGGYSMNWVRQAPGKGLEWVSYISISGATITYADSVKGRFTISRDNAKNSLYLQMNSLRAEDTAVYYCARGGQYYYDSSDYGEVAFDIWGQGTMVTVSS
VL: DIVMTQSPLSLPVTPGEPASISCRSSQSLVSNGYNYLDWYLQKPGQSPQLLIYFGSSRASGVPDRFSGSGSGTDFTLKISRVEAEDVGVYYCMQRRRTPPFTFGGGTKVEIK
B2: Ab7: variant of Ab3 with asparagine to serine substitution in CDR-L1; VH SEQ ID NO:61, VL SEQ ID NO:65 (antibody, V domains shown)
VH: B1 VH
VL: B1 VL with N32S
B3: Ab5: variant of Ab4 with asparagine to serine substitution in CDR-L1; VH SEQ ID NO:41, VL SEQ ID NO:45 (antibody, V domains shown)
VH: B1 VH with Q1E, K13Q, G30E, G31A, I53L, T59H, D105T
VL: DIVMTQSPLSLPVTPGEPASISCRSSQSLVSSGYNYLDWYLQKPGQSPQLLIYFGSSRASGVPDRFSGSGSGTDFTLKISRVEAEDVGVYYCMQRRRTPWSFGGGTKVEIK
B4: Ab2: affinity matured human anti-CD45 IgG derived from Ab1; VH SEQ ID NO:11, VL SEQ ID NO:15 (antibody, V domains shown)
VH: B1 VH with Q1E, K13Q, G30E, G31A, I53L, T59H
VL: B3 VL with S32N
B5: Ab6: affinity matured human anti-CD45 IgG derived from Ab1; VH SEQ ID NO:51, VL SEQ ID NO:55 (antibody, V domains shown)
VH: B1 VH with Q1E, K13Q, G30E, G31A, I53L, T59H, D105T, M122L
VL: B3 VL with M4L
B6: AbA: humanized and affinity matured variant of parent clone A; VH SEQ ID NO:71, VL SEQ ID NO:75 (antibody, V domains shown)
VH: EVQLLESGGGLVQPGGSLRLSCAASGFTFNNYWMTWVRQAPGKGLEWVSSISSSGGSIYYPDRVKGRFTISRDNSKNTLYLQMNSLRAEDTAVYYCARDERWAGAMDAWGQGTTVTVSS
VL: DIQMTQSPSSLSASVGDRVTITCKASQNINKNLDWYQQKPGKAPKLLIYETNNLQTGVPSRFSGSGSGTDFTLTISSLQPEDFATYYCYQHNSRFTFGQGTKLEIK
B7: AbC: affinity matured variant of parent clone C; VH SEQ ID NO:91, VL SEQ ID NO:95 (antibody, V domains shown)
VH: EVQLVESGGGLVQPGGSLRLSCAASGFTFNNYWMTWVRQAPGKGLEWVSSISSSGGSIYYPDSVKDRFTISRDNAKNSLYLQMNSLRAEDMAVYYCARLYYYDGGGDAWGQGTLVTVSS
VL: GIQMTQSPSSLSASVGDRVTITCKASQDINKYLDWYQQKPGKAPKLLIYNTNNLHTGIPSRFSGSGSGTDYTLTISSLQPEDFATYYCLQHISRWTFGGGTKVEIK
B8: AbB: affinity matured variant of parent clone B; VH SEQ ID NO:81, VL SEQ ID NO:85 (antibody, V domains shown)
VH: EVQLVESGGGLVQPGGSLRLSCAASGFTFTNFWMAWIRQAPGKGLEWVASISSSGGSIYYPDSVKDRFTISRDNSKNTLYLQMNSLRAEDTAVYYCVKFHHYSGGGDAWGQGTLVTVSS
VL: B7 VL with G1D, D28N, Y49H, N50Y, I92S

Experiments:
[1] = biological target: T1, human CD45 ectodomain; assay: Biolayer interferometry (BLI, Octet) binding of immobilized IgG to purified CD45 ectodomain; conditions: for CD45 binding compared with parent (qualitative): BLI / Octet
Experimental: (§1) Antibody binding studies were performed at 25° C. in 1×PBS supplemented with 0.1% w/v bovine serum albumin with a Pall ForteBio Octet Red96 using biolayer interferometry (BLI).
(§2) The apparent monovalent affinity (KD), apparent association rate (KON), and apparent dissociation rate (KOFF) were determined by local full fitting with a 1:1 binding model as calculated by ForteBio data analysis software version 10 of each IgG to purified human, cynomolgus or rhesus CD45 ectodomain. […] Binding was confirmed using
Briefly, antibody binding studies were performed at 25° C. in 1×PBS supplemented with 0.1% w/v bovine serum albumin with a PALL FORTEBIO OCTET RED96 using biolayer interferometry (BLI). Each purified antibody was immobilized onto anti-human Fc biosensors (AHQ; PALL FORTEBIO 18-5001) and incubated with 100 nM of purified human or 300 nM of cynomolgus CD45 ectodomain.
(§3) The apparent monovalent affinity (KD), apparent association rate (KON), and apparent dissociation rate (KDIS or KOFF) were determined by local full fitting with a 1:1 binding model as calculated by FORTEBIO data analysis software version 10. […] Each of the selected humanized antibodies AbA, AbB, and AbC was able to cross react with human and cynomolgus CD45.

[2] = biological target: T2, rhesus CD45 ectodomain; assay: as above; conditions: Table 2, Rhesus CD45; for Kd: 50 nM antigen (Ab1: 300 nM)
Experimental: as §1
as §2, with “using […]” for “using”

[3] = system: cynomolgus CD45 ectodomain; assay: as above
Experimental: as §1, §2
Briefly, antibody binding studies were performed at 25° C. in 1×PBS supplemented with 0.1% w/v bovine serum albumin with a PALL FORTEBIO OCTET RED96 using biolayer interferometry (BLI). […]
as §3

[4] = Two-week thermal / pH stress stability by HIC and peptide mapping; type: physicochemical; conditions: 4° C., 25° C., 40° C. for 15 days; high pH treatment
Experimental: A two-week stability assay was performed by incubating Ab3 and Ab4 at 4° C., 25° C., and 40° C. for 15 days, after which the antibodies were analyzed by […] (HIC). Briefly, 25 micrograms of the indicated antibody were injected onto a Tosoh TSKgel Phenyl-5PW 7.5 mm ID×7.5 cm 10-micron column (Catalog #07573) on a Waters ARC HPLC/UPLC system. […] This hydrophilic pre-peak was indicative of a potential site of post-translational modification (e.g., oxidation or deamidation). Peptide mapping was subsequently performed to identify which amino acids were modified in each antibody upon exposure to stress (high pH, low pH, and oxidative stress). The peptide mapping analysis identified a potential site of deamidation at an asparagine in CDR-L1 (N30 position) in response to high pH conditions (e.g., pH 8 or greater).
Accordingly, variants of Ab3 and Ab4 were generated in which the asparagine in CDR-L1 (e.g., at position 30B) was substituted with a serine. The resulting antibodies were named Ab7 and Ab5 respectively.

[5] = Table 2, Cynomolgus CD45, 50 nM antigen (Ab1: 300 nM)
[6] = Table 11, Cyno CD45, 300 nM antigen

Chain of cynomolgus CD45 ectodomain (as listed by the source): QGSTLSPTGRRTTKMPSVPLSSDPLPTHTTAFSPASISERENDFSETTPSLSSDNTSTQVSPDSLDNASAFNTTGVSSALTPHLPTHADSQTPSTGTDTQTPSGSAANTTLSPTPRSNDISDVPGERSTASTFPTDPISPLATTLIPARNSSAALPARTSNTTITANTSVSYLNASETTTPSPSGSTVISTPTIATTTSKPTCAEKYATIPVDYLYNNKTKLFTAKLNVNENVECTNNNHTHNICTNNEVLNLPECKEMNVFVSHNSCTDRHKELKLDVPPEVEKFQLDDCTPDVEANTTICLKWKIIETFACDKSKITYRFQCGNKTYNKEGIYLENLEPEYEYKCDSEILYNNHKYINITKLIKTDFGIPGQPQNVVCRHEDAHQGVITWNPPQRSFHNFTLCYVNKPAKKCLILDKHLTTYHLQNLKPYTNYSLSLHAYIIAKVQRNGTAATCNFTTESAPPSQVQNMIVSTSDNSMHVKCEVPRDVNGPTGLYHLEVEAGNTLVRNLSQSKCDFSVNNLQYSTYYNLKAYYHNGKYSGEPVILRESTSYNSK

Row | Molecule | Kdis ([1]; Table 2, Human CD45) [s⁻¹] | Kon ([1]; Table 2, Human CD45) [M⁻¹ s⁻¹] | Kdis [2] [s⁻¹] | Kon [2] [M⁻¹ s⁻¹] | Kd [2] [nM] | Kdis ([3]; Table 2, Cynomolgus CD45) [s⁻¹] | Kon ([3]; Table 2, Cynomolgus CD45) [M⁻¹ s⁻¹] | Kd [3, 5] [nM] | HIC hydrophilic pre-peak (deamidated species) [4] | CD45 binding compared with parent (qualitative) [1] | KON ([1]; Table 11, Human CD45) [M⁻¹ s⁻¹] | Kdis ([1]; Table 11, Human CD45) [s⁻¹] | KON ([3]; Table 11, Cyno CD45) [M⁻¹ s⁻¹] | Kdis ([3]; Table 11, Cyno CD45) [s⁻¹] | Kd [3, 6] [nM] | improved affinity over the parent clone ([1]; text b859)
1 | B1 | 0.000225 | 260000 | 0.000222 | 135000 | 1.65 | 0.000192 | 120000 | 1.61 | hydrophilic pre-peak that increased as a function of thermal stress | – | – | – | – | – | – | –
2 | B2 | 0.000615 | 264000 | 0.000544 | 124000 | 4.39 | 0.000537 | 127000 | 4.24 | – | did not alter CD45 binding | – | – | – | – | – | –
3 | B3 | 3.36e-05 | 233000 | 0.000193 | 113000 | 1.71 | 0.000164 | 117000 | – | – | did not alter CD45 binding | – | – | – | – | – | –
4 | B4 | 2.8e-05 | 245000 | 0.000192 | 135000 | 1.42 | 0.000129 | 119000 | 1.08 | – | – | – | – | – | – | – | –
5 | B5 | 1.73e-05 | 242000 | 0.000175 | 122000 | 1.44 | 0.000154 | 118000 | 1.3 | – | – | – | – | – | – | – | –
6 | B6 | – | – | – | – | – | – | – | – | – | – | 50300 | 0.000181 | 9440 | 0.000322 | 34.1 | –
7 | B7 | – | – | – | – | – | – | – | – | – | – | 50800 | 0.000149 | 11100 | 0.000282 | 25.3 | greater than 4 fold
8 | B8 | – | – | – | – | – | – | – | – | – | – | 43800 | 0.000239 | 8160 | 0.00042 | 51.5 | –
